The values that follow come from publication PMC11315935, “Multi-layered heterochromatin interaction as a switch for DIM2-mediated DNA methylation” (Nature Communications, 2024).

The subject of one test is HP1. The test can be described thus: Size-exclusion chromatography of DIM2-HP1 complex. In kind it is binding, Neurospora Crassa. The note with it: 1.0 µM DIM2 and/or 2.5 µM HP1, Superdex 200 increase 10/300 GL, pH 7.5. Here is the method: For size-exclusion chromatography analysis, 400 µL of the sample mixture containing 1.0 µM DIM2 and/or 2.5 µM HP1 was loaded onto Superdex 200 increase 10/300 GL column (GE Healthcare) and eluted at a flow rate of 0.5 mL/min, in the buffer containing 20 mM Tris-HCl (pH 7.5), 100 mM NaCl, 5% glycerol, and 5 mM DTT. The proteins in each fraction were then visualized by SDS-PAGE.
In general terms: SEC sorts molecules by how far they enter the pores of the column.

In test [1] the test system is (CTA)12/(TAG)12 36-mer DNA duplex. Nature of the test: In vitro DNA methylation assay of DIM2 (WT or mutant). Format: biochemical. Details: DNA methylation activity: unit not given here. The note with it: 30 min, pH 8.0.
A further test concerns DIM2. The test can be described thus: In vitro DNA methylation assay: effect of HP1 and H3 peptides on DIM2 activity. The note with it: for DNA methylation activity of DIM2 in presence of HP1, WT or W98A: Sup Fig. 1e, (CTA)12/(TAG)12 DNA duplex, 1.0 µM DIM2, 2 µM HP1, 30 °C, 30 min, pH 8.0. Further details: DNA methylation activity of DIM2 in presence of HP1, WT or W98A: unit not given beside the values. Format: biochemical, Neurospora Crassa. Here is the method:
In vitro DNA methylation assay was performed in a 20-µL reaction mixture. For the substrate specificity assay, the following DNA duplexes were used as substrates: CG DNA (Upper strand: 5’-[…]-3’), hemimethylated CG DNA (Upper strand: 5’-TAAATTTXGATTAATAAT-3’, X = 5-methylcytosine; Lower strand: 5’-[…] -3’), CHG DNA (Upper strand: 5’-[…]-3’), and CHH DNA (Upper strand: 5’-[…]-3’). The reaction mixture contains 0.25 µM DIM2, 1.0 µM DNA duplex, 1.0 µM synthesized H3K9me3 peptide (residues 1-24 of H3 plus a C-terminal tryptophan), 0.5 µM HP1, and 0.56 µM S-adenosyl-L-[methyl-^3H] methionine with a specific activity of 18 Ci/mmol (PerkinElmer) in buffer containing 50 mM Tris-HCl (pH 8.0), 100 mM NaCl, 0.05% β-mercaptoethanol, 5% glycerol, and 200 µg/mL BSA. For the rest of the DNA methylation assay, each reaction mixture contains 1.0 µM DIM2, […] methionine with a specific activity of 18 Ci/mmol (PerkinElmer) in buffer containing 50 mM Tris-HCl (pH 8.0), 100 mM NaCl, 0.05% β-mercaptoethanol, 5% glycerol, and 200 µg/mL BSA. In addition, 1.0 µM synthesized H3K9me3 or H3K9me0 peptide (residues 1-24 of H3 plus a C-terminal tryptophan) and/or 2 µM HP1 protein was included to evaluate the effect of H3 and HP1 regulation. The reaction mixture was incubated at 30 °C for 30 min, unless indicated otherwise, before being quenched by the addition of 5 µL of 10 mM cold SAM. After the reaction, 8 μL of the mixtures was loaded onto Hybond N nylon membrane (GE Healthcare), which was left to dry out at room temperature. The membrane was subsequently washed with 0.2 M ammonium bicarbonate (pH 8.2) two times (20 min per time), deionized water (20 min) once, and 95% ethanol (5 min) once. After air dried, the membrane carrying each sample was transferred into a vial containing 3 mL scintillation buffer (Fisher). The tritium scintillation was measured and recorded by a Beckman LS6500 counter. Each the reaction was repeated three times.

B1: DIM2L134A/L139A: DIM2 L134A/L139A double mutation (protein)
chain: MDSPDRSHGGMFIDVPAETMGFQEDYLDMFASVLSQGLAKEGDYAHHQPLPAGKEECLEPIAVATTITPSPDDPQLQLQLELEQQFQTESGLNGVDPAPAPESEDEADLPDGFSDESPDDDFVVQRSKHITVDAPVSTAINPRSTFQRIDENDNLVPPPQSTPERVAVEDLLKAAKAAGKNKEDYIEFELHDFNFYVNYAYHPQEMRPIQLVATKVLHDKYYFDGVLKYGNTKHYVTGMQVLELPVGNYGASLHSVKGQIWVRSKHNAKKEIYYLLKKPAFEYQRYYQPFLWIADLGKHVVDYCTRMVERKREVTLGCFKSDFIQWASKAHGKSKAFQNWRAQHPSDDFRTSVAANIGYIWKEINGVAGAKRAAGDQLFRELMIVKPGQYFRQEVPPGPVVTEGDRTVAATIVTPYIKECFGHMILGKVLRLAGEDAEKEKEVKLAKRLKIENKNATKADTKDDMKNDTATESLPTPLRSLPVQVLEATPIESDIVSIVSSDLPPSENNPPPLTNGSVKPKAKANPKPKPSTQPLHAAHVKYLSQELVNKIKVGDVISTPRDDSSNTDTKWKPTDTDDHRWFGLVQRVHTAKTKSSGRGLNSKSFDVIWFYRPEDTPCCAMKYKWRNELFLSNHCTCQEGHHARVKGNEVLAVHPVDWFGTPESNKGEFFVRQLYESEQRRWITLQKDHLTCYHNQPPKPPTAPYKPGDTVLATLSPSDKFSDPYEVVEYFTQGEKETAFVRLRKLLRRRKVDRQDAPANELVYTEDLVDVRAERIVGKCIMRCFRPDERVPSPYDRGGTGNMFFITHRQDHGRCVPLDTLPPTLRQGFNPLGNLGKPKLRGMDLYCGGGNFGRGLEEGGVVEMRWANDIWDKAIHTYMANTPDPNKTNPFLGSVDDLLRLALEGKFSDNVPRPGEVDFIAAGSPCPGFSLLTQDKKVLNQVKNQSLVASFASFVDFYRPKYGVLENVSGIVQTFVNRKQDVLSQLFCALVGMGYQAQLILGDAWAHGAPQSRERVFLYFAAPGLPLPDPPLPSHSHYRVKNRNIGFLCNGESYVQRSFIPTAFKFVSAGEGTADLPKIGDGKPDACVRFPDHRLASGITPYIRAQYACIPTHPYGMNFIKAWNNGNGVMSKSDRDLFPSEGKTRTSDASVGWKRLNPKTLFPTVTTTSNPSDARMGPGLHWDEDRPYTVQEMRRAQGYLDEEVLVGRTTDQWKLVGNSVSRHMALAIGLKFREAWLGTLYD
modifications: left off: His6, N-terminal, cleaved | MBP, N-terminal, cleaved
notes: DIM2 L134A/L139A double mutation
In the case of B1, the “DIM2-HP1 complex formation (in words)” value in the test with HP1 is recorded as “partial disruption of the DIM2-HP1 complex”. Moreover, the DNA methylation activity in test [1] (Fig. 2g, in the presence of HP1 (2 µM) and H3_1-24K9me3 peptide (1.0 µM), 1.0 µM DIM2, 30 °C, replicate 1) was 1.016; in test [1] (Fig. 2g, in the presence of HP1 (2 µM) and H3_1-24K9me3 peptide (1.0 µM), 1.0 µM DIM2, 30 °C, replicate 2) it was 1.136; in test [1] (Fig. 2g, in the presence of HP1 (2 µM) and H3_1-24K9me3 peptide (1.0 µM), 1.0 µM DIM2, 30 °C, replicate 3), 1.188.

B2: DIM2N1050A: DIM2 with mutation in the bridging loop (N1050A) (protein)
chain: MDSPDRSHGGMFIDVPAETMGFQEDYLDMFASVLSQGLAKEGDYAHHQPLPAGKEECLEPIAVATTITPSPDDPQLQLQLELEQQFQTESGLNGVDPAPAPESEDEADLPDGFSDESPDDDFVVQRSKHITVDLPVSTLINPRSTFQRIDENDNLVPPPQSTPERVAVEDLLKAAKAAGKNKEDYIEFELHDFNFYVNYAYHPQEMRPIQLVATKVLHDKYYFDGVLKYGNTKHYVTGMQVLELPVGNYGASLHSVKGQIWVRSKHNAKKEIYYLLKKPAFEYQRYYQPFLWIADLGKHVVDYCTRMVERKREVTLGCFKSDFIQWASKAHGKSKAFQNWRAQHPSDDFRTSVAANIGYIWKEINGVAGAKRAAGDQLFRELMIVKPGQYFRQEVPPGPVVTEGDRTVAATIVTPYIKECFGHMILGKVLRLAGEDAEKEKEVKLAKRLKIENKNATKADTKDDMKNDTATESLPTPLRSLPVQVLEATPIESDIVSIVSSDLPPSENNPPPLTNGSVKPKAKANPKPKPSTQPLHAAHVKYLSQELVNKIKVGDVISTPRDDSSNTDTKWKPTDTDDHRWFGLVQRVHTAKTKSSGRGLNSKSFDVIWFYRPEDTPCCAMKYKWRNELFLSNHCTCQEGHHARVKGNEVLAVHPVDWFGTPESNKGEFFVRQLYESEQRRWITLQKDHLTCYHNQPPKPPTAPYKPGDTVLATLSPSDKFSDPYEVVEYFTQGEKETAFVRLRKLLRRRKVDRQDAPANELVYTEDLVDVRAERIVGKCIMRCFRPDERVPSPYDRGGTGNMFFITHRQDHGRCVPLDTLPPTLRQGFNPLGNLGKPKLRGMDLYCGGGNFGRGLEEGGVVEMRWANDIWDKAIHTYMANTPDPNKTNPFLGSVDDLLRLALEGKFSDNVPRPGEVDFIAAGSPCPGFSLLTQDKKVLNQVKNQSLVASFASFVDFYRPKYGVLENVSGIVQTFVNRKQDVLSQLFCALVGMGYQAQLILGDAWAHGAPQSRERVFLYFAAPGLPLPDPPLPSHSHYRVKNRNIGFLCAGESYVQRSFIPTAFKFVSAGEGTADLPKIGDGKPDACVRFPDHRLASGITPYIRAQYACIPTHPYGMNFIKAWNNGNGVMSKSDRDLFPSEGKTRTSDASVGWKRLNPKTLFPTVTTTSNPSDARMGPGLHWDEDRPYTVQEMRRAQGYLDEEVLVGRTTDQWKLVGNSVSRHMALAIGLKFREAWLGTLYD
modifications: left off: His6, N-terminal, cleaved | MBP, N-terminal, cleaved
In the case of B2, the “DNA methylation activity of DIM2 (in words)” value in test [1] (1.0 µM DIM2, 30 °C) is reported as “marked decrease of the DNA methylation activity”. Further, the DNA methylation activity in test [1] (Fig. 6d, H3_1-24K9me3 binding-associated mutants, 1.0 µM DIM2, 1.0 µM DNA duplex, 30 °C, replicate 1) worked out at 5.118; in test [1] (Fig. 6d, H3_1-24K9me3 binding-associated mutants, 1.0 µM DIM2, 1.0 µM DNA duplex, 30 °C, replicate 2) it was 5.385; in test [1] (Fig. 6d, H3_1-24K9me3 binding-associated mutants, 1.0 µM DIM2, 1.0 µM DNA duplex, 30 °C, replicate 3) it was 5.072.

B3: HP1W98A: HP1 with H3K9me3-cage mutation W98A (protein)
chain: MPYDPSALSDEEAASSVELDTRSATSSSKKQSRDKKSVKYTIPEPEDFEDEEQNGDGADEGGEDDEEGDEEEEDVYVVEKILDHMLNDDNEPLFLVKAEGYEKKSDQTWEPEDTLIEGASERLKEYFTKIGGREKIFEASAAAQKIKKRGRPSSNSGTPQASSNKRSRKNGDHPLNSEEPQTAKNAAWKPPAGSWEEHIAQLDACEDEDTHKLMVYLTWKNGHKTQHTTDVIYKRCPQKMLQFYERHVRIIKRDPDSEDREGSVSQ
modifications: left off: His6, N-terminal, cleaved | MBP, N-terminal, cleaved
notes: HP1 with H3K9me3-cage mutation W98A
With B3, the results for the “DNA methylation activity of DIM2 in presence of HP1, WT or W98A” value in the test on DIM2 (replicate 1), with DIM2 (replicate 2) and in the test with DIM2 (replicate 3) were 45.423, 47.119 and 45.142, respectively. In addition, in the test on DIM2 (W98A vs WT HP1), the “increase of activity-stimulation effect of HP1 on DIM2” value was ~ 2 fold.
